Assay results taken from patent publication US20090011988A1 (Genentech, published 2009).
Positions of bridges follow the written chain, without caps; N, C: chain ends. No end group written: not given here. suc = not defined here

What was measured:
[1] = biological target: T1, human IGFBP-1 (human, UniProt P08833 26-259); experiment: competitive phage ELISA
T1 sequence (looked up): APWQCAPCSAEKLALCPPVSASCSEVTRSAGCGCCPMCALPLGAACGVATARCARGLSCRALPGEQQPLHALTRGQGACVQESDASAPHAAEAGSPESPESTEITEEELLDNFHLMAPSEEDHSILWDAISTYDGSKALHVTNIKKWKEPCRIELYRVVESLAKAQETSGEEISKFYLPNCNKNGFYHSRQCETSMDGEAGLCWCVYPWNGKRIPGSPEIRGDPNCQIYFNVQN
Procedure: E. coli cells (XL1-Blue, Stratagene) freshly transformed with phagemid vector were grown overnight in 5 mL 2YT medium (Sambrook et al., supra) in the presence of M13-VCS helper phage (Stratagene). Phage particles were harvested and resuspended in PBS buffer as described in Lowman, H. B., “Phage Display of Peptide Libraries on Protein Scaffolds,” in Cabilly, S. (ed.), Combinatorial Peptide Library Protocols (Humana Press Inc.: Totowa, N.J., 1998), pp. 249-264. Then phage concentrations were normalized to yield a maximal ELISA signal of 0.2-0.4 for each mutant (Lowman, in Cabilly, S. (ed.), supra). Threefold serial dilutions of soluble competitor were prepared on non-absorbent microtiter plates (Nunc, F, 96 wells) with binding buffer (0.5% TWEEN 20%/PBS) containing phage at the previously determined concentrations. […] After blocking, the plates containing immobilized target were washed with 0.05% TWEEN™/PBS buffer and subsequently incubated with 80 μl/well of the premixed phage-competitor solutions for 1 hour at room temperature. […] IC₅₀ values were determined by fitting the binding data to a generic saturation curve (Lowman, in Cabilly, S. (ed.), supra). At least two individual clones of each IGF-1 mutant were assayed. Numbers in Table XIII represent mean±standard deviation of individually assessed IC₅₀ values.

[2] = biological target: T1, human IGFBP-1; experiment: competitive phage ELISA, value as restated in Table XIV (Table XIII prints 7.0 for the same pair)
[3] = biological target: IGF-1 G1S-A70V displayed on phage (human; bacteriophage M13); experiment: competitive phage ELISA: phage displaying G1S-A70V IGF-1 on an IGFBP-3-coated plate (1 µg/ml), competed by soluble IGFBP-3; OD492
[4] = biological target: IGF-1 G1S-A70V displayed on phage (human; bacteriophage M13); experiment: competitive phage ELISA: phage on an IGFBP-3-coated plate (1 µg/ml), competed by soluble IGFBP-3; OD492, mean ± SD, n=2
[5] = biological target: T2, recombinant human IGFBP-3 (human, UniProt P17936 28-291); experiment: BIAcore competition, IGFBP-3 to immobilized IGF-2
Procedure: IGF-2 was immobilized on a dextran chip for inhibition assays using a BIACORE™ 2000 surface-plasmon-resonance device (BIAcore, Inc., Piscataway, N.J.) to measure free binding protein. IGF-2 was biotinylated as described above, and injected over a chip to which streptavidin had been coupled (BIAcore, Inc.) to give approximately 1500 RU of immobilized IGF-2. […] After incubation for >1 hour at room temperature, an aliquot of […] was injected at a flow rate of […] over the IGF-2 chip.

[6] = biological target: T2, recombinant human IGFBP-3; experiment: BIAcore competition, IGFBP-3 to immobilized IGF-1
Procedure: IGF-1 was immobilized on a dextran chip for inhibition assays using a BIACORE™ 2000 surface-plasmon-resonance device (BIAcore, Inc., Piscataway, N.J.) to measure free binding protein. IGF-1 was biotinylated as described above, and injected over a chip to which streptavidin had been coupled (BIAcore, Inc.) to give 400 to 800 RU (response units) of immobilized IGF-1. […] After incubation for >1 hour at room temperature, an aliquot of 20:L was injected at a flow rate of 20:L/min over the IGF-1 chip. […]

[7] = biological target: T2, recombinant human IGFBP-3; experiment: phage ELISA on IGFBP-3 plate, competitor IGF-1
[8] = biological target: T2, recombinant human IGFBP-3; experiment: phage ELISA (IGF-blocking phage assay): titration of g8 peptide-phage on an IGFBP-3-coated plate in the presence of 100 nM IGF-1; OD492
Procedure: (§1) The plates were then washed ten times, as above, and a solution of rabbit anti-phage antibody mixed with a goat-anti-rabbit conjugate of horseradish peroxidase was added. After an incubation of 1 hour at room temperature, the plates were developed with a chromogenic substrate, o-phenylenediamine (Sigma). The reaction was stopped with addition of ½ volume of 2.5 M H₂SO₄. Optical density at 490 nm was measured on a spectrophotometric plate reader.

[9] = biological target: T1, human IGFBP-1; experiment: BIAcore inhibition assay; reference
[10] = biological target: T1, human IGFBP-1; experiment: ELISA inhibition assay
[11] = biological target: T2, recombinant human IGFBP-3; experiment: phage ELISA: titration of g8 peptide-phage on an IGFBP-3-coated plate without IGF-1; OD492
Procedure: as §1

[12] = biological target: T2, recombinant human IGFBP-3; experiment: BIAcore competition, IGFBP-3 to IGF-1
[13] = biological target: T2, recombinant human IGFBP-3; experiment: BIAcore competition, IGFBP-3 to IGF-1; remark: listed apart in the source
Procedure: IGF-1 was immobilized on a dextran chip for inhibition assays using a BIACORE™ 2000 surface-plasmon-resonance device (BIAcore, Inc., Piscataway, N.J.) to measure free binding protein. IGF-1 was biotinylated as described above, and injected over a chip to which streptavidin had been coupled (BIAcore, Inc.) to give 400 to 800 RU (response units) of immobilized IGF-1. […] After incubation for >1 hour at room temperature, an aliquot of 20:L was injected at a flow rate of 20:L/min over the IGF-1 chip.

[14] = biological target: IGF-1 G1S-A70V displayed on phage (human; bacteriophage M13); experiment: competitive phage ELISA: phage on an IGFBP-3-coated plate (1 µg/ml), competed by soluble IGFBP-1; OD492, mean ± SD, n=2
[15] = biological target: IGF-1 G1S-A70V displayed on phage (human; bacteriophage M13); experiment: competitive phage ELISA: phage displaying G1S-A70V IGF-1 on an IGFBP-1-coated plate (1 µg/ml), competed by soluble IGFBP-1; OD492
[16] = biological target: T1, human IGFBP-1; experiment: BIAcore, IGFBP-1 coupled to chip
[17] = biological target: T1, human IGFBP-1; experiment: BIAcore kinetics, IGFBP-1 coupled to chip
Procedure: For each dilution of peptides, a global fit of the sensorgram data was performed using a 1:1 Langmuir binding model.

[18] = biological target: T1, human IGFBP-1; experiment: inhibition assays
[19] = biological target: T1, human IGFBP-1; experiment: BIAcore inhibition, 9-10 nM IGFBP-1 to immobilized IGF-1

T2 sequence (P17936 28-291 limits assumed): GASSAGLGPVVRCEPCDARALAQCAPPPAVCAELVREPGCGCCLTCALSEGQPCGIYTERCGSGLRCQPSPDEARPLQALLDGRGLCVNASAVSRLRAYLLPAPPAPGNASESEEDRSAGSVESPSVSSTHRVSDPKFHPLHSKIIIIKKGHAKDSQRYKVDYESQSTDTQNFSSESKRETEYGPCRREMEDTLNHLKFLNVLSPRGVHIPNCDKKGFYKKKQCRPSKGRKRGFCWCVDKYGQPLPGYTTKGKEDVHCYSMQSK

Molecule: IGF-1 F16A displayed on phage (from UniProt P69168 267-424) (ligand)
- relative IC50 (mut/G1S-A70V) [1]: 7
- relative IC50 (mut/G1S-A70V) [2]: 6

Molecule: recombinant human IGFBP-3 (from UniProt P17936 28-291)
- IC50 [3]: 0.0005 µM
- IC50 (read off the curve) [4]: 0.0007 µM

B1: BP3-17 (peptide)
peptide: VCWPVAEWYLCN
modifications: disulfide 2-11
- IC50 [5]: 5.1 µM
- IC50 [6]: 9 µM

B2: peptide-phage clone 23A3.3 (g8 display) (peptide, not shown: large carriers)
chain: SGGAIYWPVEQFIAFMAVGK
notes: polyvalent display on M13 phage
- % inhibition of phage binding by 100 nM IGF-1 [7]: ~20%

B3: peptide-phage clone 23A3.5 (g8 display) (peptide, not shown: large carriers)
chain: SGGAIYMPVEQFIAFMAVGK
notes: as for B2
- % inhibition of phage binding by 100 nM IGF-1 [7]: ~20%

B4: peptide-phage clone 4A3.1 (g8 display) (peptide, not shown: large carriers)
chain: SGTACYGGPEWWCCSLAGSP
modifications: not fully specified (bridges); also: displayed on M13 g8p phage, disulfide pairing of the three Cys not given here
notes: as for B2
- binding result [8]: binds

B5: BP1-01 (peptide)
peptide: CRAGPLQWLCEKYFG
modifications: disulfide 1-10
- fold potency reduction, IC50 (BP1-01)/IC50 (mut) [9]: 1

B6: BP1-26 (peptide)
peptide: CRAGPLQWRCEKYF
modifications: disulfide 1-10
notes: also called BP1-16 L9R
- binding result [10]: no binding (tested: >570-fold the IC50 of BP1-16)

B7: BP1-32 (peptide)
peptide: CRAGPRQWLCEKYF
modifications: disulfide 1-10
notes: also called BP1-16 L6R
- binding result [10]: no binding (tested: >1000-fold the IC50 of BP1-16)

B8: peptide-phage clone 4D3.4 (g8 display) (peptide, not shown: large carriers)
chain: RVGAYISCSETECWVEDLLD
modifications: not fully specified (bridges); cysteine pairing not given here; also: polyvalent display on M13 phage, fused via linker to g8p
notes: as for B2
- binding result [11]: binds

B9: BP3-108 (peptide)
peptide: suc-IPVSPDWFVCQ-NH2
modifications: reading uncertain
notes: also called phage parent t4H3.9
- IC50 [12]: 20 µM

B10: BP3-01-ox (peptide)
peptide: SEEVCWPVAEWYLCNMWG
modifications: disulfide 5-14
- IC50 [5]: 0.92 µM
- IC50 [6]: 2 µM
- IC50 [13]: 2 µM

B11: human IGFBP-1 (protein, UniProt P08833 26-259, looked up)
chain: T1 sequence (looked up)
- IC50 (read off the curve) [14]: 0.008 µM
- IC50 [15]: 0.0085 µM

B12: peptide-phage clone 4D3.11 (g8 display) (peptide, not shown: large carriers)
chain: VAWEVCWDRHDQGYICTTDS
notes: as for B2
- % inhibition of phage binding by 100 nM IGF-1 [7]: 5%

B13: BP3-107 (peptide)
peptide: suc-CQLVRPDLLLCQ-NH2
modifications: disulfide 1-11; reading uncertain
notes: also called phage parent t4H3.6
- IC50 [12]: 100 µM

B14: BP1-02 (peptide)
peptide: SEVGCRAGPLQWLCEKYFG
modifications: disulfide 5-14
- half-life for peptide dissociation [16]: ~28 s
- koff [16]: 0.0503 s⁻¹
- kon [16]: 230000 M⁻¹ s⁻¹
- Kd [17]: 0.21 µM

B15: BP1-25 (peptide)
peptide: EARVCRAGPLQWLCEKYFSTY
modifications: disulfide 5-14
- Kd [17]: 0.042 µM
- fold affinity improvement over BP1-16 [18]: ~20 fold

B16: BP1-625 (peptide)
peptide: GQQSCAAGPLQWLCEHYFSTYGR
modifications: not fully specified (bridges); cysteine pairing not given here
- fold improved potency over BP1-01 [19]: ~20 fold

B17: peptide-phage clone 4D3.5 (g8 display) (peptide, not shown: large carriers)
chain: WFKTVCYEWEDEVQCYTLEE
modifications: not fully specified (bridges); cysteine pairing not given here; also: polyvalent display on M13 phage, fused via linker to g8p
notes: as for B2
- binding result [11]: binds

B18: BP3-15 (peptide)
peptide: SEEVCWPVAEWYLCN
modifications: disulfide 5-14
- IC50 [5]: 0.78 µM
- IC50 [6]: 0.75 µM
- IC50 [13]: 0.72 µM

B19: peptide-phage clone 4D3.3 (g8 display) (peptide, not shown: large carriers)
chain: SEEVCWPVAEWYLCNMWGR
modifications: not fully specified (bridges); cysteine pairing not given here; also: polyvalent display on M13 phage, fused via linker to g8p
notes: as for B2
- binding result [8]: binds

B20: peptide-phage clone 4B3.4 (g8 display) (peptide, not shown: large carriers)
chain: DMGVCADGPWMYVCEWTE
notes: as for B2
- binding result [8]: binds
